From US20200339657A1, “PEPTIDES AND COMBINATION THEREOF FOR USE IN THE IMMUNOTHERAPY AGAINST CANCERS” (Immatics Biotechnologies GmbH, priority 2017, published 2020) come the findings set out here.

The target of one assay is HLA-A*02:01 (Homo sapiens, UniProt P04439, D140Y/D185E/D98H/E176V/E277Q/G131W/G231S/I119V/I121R/I166T/I218V/L300P/L318F/N151K/N90K/P208A/P217A/Q86G/Q94H/R138H/R169H/T345S). In words: MHC binding assay (UV-ligand exchange, β2m ELISA). The settings on record: for Peptide exchange: peptide exchange yield, binding to HLA-A*02:01. For orientation: ELISA stands for enzyme-linked immunosorbent assay.

The test system of a further assay is CD8+ T cells. In words: In vitro immunogenicity: T-cell priming with aAPCs loaded with peptide/MHC and anti-CD28, multimer readout. Type of assay: cell-based, human.
For a further assay, the target named is HLA-A*24:02 (Homo sapiens, UniProt P04439, D101N/D140Y/D185E/E176V/E190D/F33S/G103R/G107R/I119L/I121M/I306V/K335N/L105A/L180Q/L300P/N151K/N90K/Q86E/Q94H/R106L/R138H/R89G/T104I/T345S/V100E/W191G/Y123F). Nature of the assay: MHC binding assay (UV-ligand exchange, β2m ELISA). The following applies: for Peptide exchange: peptide exchange yield, binding to HLA-A*24:02.

On to “KTLGKLWRL (listed as Homo sapiens) [SEQ ID NO: 267]”, for which the “bind to HLA-A*02” value with HLA-A*02:01 is given as “binds to HLA-A*02”. “46 (VLITGLPLI; listed as Homo sapiens) [compound 46]”: the Peptide exchange entry with HLA-A*02:01 was ““++++” (>75% = ++++)”. “57 (GLTGVIMTI; listed as Homo sapiens) [compound 57]”: the Peptide exchange result with HLA-A*02:01 is recorded as ““++++” (>75% = ++++)”. Moreover, the “Wells positive [%]” value in the assay with CD8+ T cells (HLA A*02) is listed as ““++++” (>= 70% = ++++)”. Take “40 (KIDDIWNLEV; listed as Homo sapiens) [compound 40]”: in the assay with HLA-A*02:01, the Peptide exchange result is ““+++” (>50 = +++)”. Take “50 (ELMPRVYTL; listed as Homo sapiens) [compound 50]”: the Peptide exchange entry with HLA-A*02:01 is ““+++” (>50 = +++)”. The “Wells positive [%]” value with CD8+ T cells (HLA A*02) is listed as ““+” (<20% = +)”. As for “47 (YQDSWFQQL; listed as Homo sapiens) [compound 47]”, the Peptide exchange result with HLA-A*02:01 is recorded as ““+++” (>50 = +++)”. Consider “44 (SQTGFVVLV; listed as Homo sapiens) [compound 44]”, for which the Peptide exchange entry in the assay with HLA-A*02:01 was ““++” (>20% = ++)”.

With “45 (KLLDEVTYL; listed as Homo sapiens) [compound 45]”, in the assay with HLA-A*02:01, the Peptide exchange entry was ““+++” (>50 = +++)”. As for “61 (RLFGLFLNNV; listed as Homo sapiens) [compound 61]”, in the assay with HLA-A*02:01, the Peptide exchange result is given as ““++++” (>75% = ++++)”. “249 (ALFPERITV; listed as Homo sapiens) [compound 249]”: the Peptide exchange result with HLA-A*02:01 is on record as ““++++” (>75% = ++++)”. The “Wells positive [%]” value in the assay with CD8+ T cells (HLA A*02) was ““++” (20%-49% = ++)”. On to “51 (ALAAELNQL; listed as Homo sapiens) [compound 51]”, for which the Peptide exchange entry in the assay with HLA-A*02:01 is given as ““+++” (>50 = +++)”. “138 (KYLSIPTVF; listed as Homo sapiens) [compound 138]”: the Peptide exchange result with HLA-A*24:02 is recorded as ““++++” (>75% = ++++)”. Moreover, the “Wells positive [%]” value with CD8+ T cells (HLA A*24) is listed as ““+” (<20% = +)”. As for “38 (VMLNSNVLL; listed as Homo sapiens) [compound 38]”, the Peptide exchange entry with HLA-A*02:01 is reported as ““++++” (>75% = ++++)”. Moreover, in the assay on CD8+ T cells (HLA A*02), the “Wells positive [%]” value is reported as ““+” (<20% = +)”.

Regarding “251 (RLASRPLLL; listed as Homo sapiens) [compound 251]”, the Peptide exchange entry with HLA-A*02:01 is listed as ““+++” (>50 = +++)”. Consider “59 (KLHEIYIQA; listed as Homo sapiens) [compound 59]”, for which the Peptide exchange result with HLA-A*02:01 was ““++++” (>75% = ++++)”. “133 (SFDSNLLSF; listed as Homo sapiens) [compound 133]”: the Peptide exchange entry with HLA-A*24:02 is on record as ““+” (>10% = +)”. As for “DYIPYVFKL (listed as Homo sapiens) [SEQ ID NO: 268]”, the “bind to HLA-A*24” value with HLA-A*24:02 is “binds to HLA-A*24”. As for “136 (EYNNIQHLF; listed as Homo sapiens) [compound 136]”, the Peptide exchange entry with HLA-A*24:02 is listed as ““+++” (>50 = +++)”.

Consider “39 (YLLPSVVLL; listed as Homo sapiens) [compound 39]”, for which the Peptide exchange entry with HLA-A*02:01 is recorded as ““++++” (>75% = ++++)”. As for “135 (VIAPIISNF; listed as Homo sapiens) [compound 135]”, the Peptide exchange result with HLA-A*24:02 is ““+++” (>50 = +++)”. Same read-out and setting: for “126 (TFQDKTLNF; listed as Homo sapiens) [compound 126]” the value was ““+++” (>50 = +++)”; for “113 (VWAKILSAF; listed as Homo sapiens) [compound 113]”, ““+++” (>50 = +++)”; for “120 (MYAKEFDLL; listed as Homo sapiens) [compound 120]”, ““+++” (>50 = +++)”. As to “114 (KFLDSNIKF; listed as Homo sapiens) [compound 114]”, in the assay with HLA-A*24:02, the Peptide exchange result was ““+++” (>50 = +++)”. “115 (YFEEAANFL; listed as Homo sapiens) [compound 115]”: the Peptide exchange entry with HLA-A*24:02 was ““++” (>20% = ++)”.

Turning to “137 (KYLSLSNSF; listed as Homo sapiens) [compound 137]”, the Peptide exchange result in the assay with HLA-A*24:02 is ““++++” (>75% = ++++)”. For the substance “52 (YVSSGEMMV; listed as Homo sapiens) [compound 52]”, in the assay with HLA-A*02:01, the Peptide exchange result is ““+++” (>50 = +++)”. As to “53 (LLMTSLTES; listed as Homo sapiens) [compound 53]”, the Peptide exchange result with HLA-A*02:01 is recorded as ““+++” (>50 = +++)”. As for “141 (KYLSIPAVFF; listed as Homo sapiens) [compound 141]”, the Peptide exchange entry with HLA-A*24:02 is given as ““++++” (>75% = ++++)”. Regarding “43 (GLMTIVTSL; listed as Homo sapiens) [compound 43]”, in the assay with HLA-A*02:01, the Peptide exchange result is ““++++” (>75% = ++++)”. Moreover, the “Wells positive [%]” value with CD8+ T cells (HLA A*02) is on record as ““++” (20%-49% = ++)”. “60 (GLPDFVKEL; listed as Homo sapiens) [compound 60]”: in the assay with HLA-A*02:01, the Peptide exchange result is reported as ““++++” (>75% = ++++)”. In the assay with CD8+ T cells (HLA A*02), the “Wells positive [%]” value is listed as ““++” (20%-49% = ++)”. As to “134 (TYLTGRQF; listed as Homo sapiens) [compound 134]”, in the assay with HLA-A*24:02, the Peptide exchange entry is reported as ““++” (>20% = ++)”. Take “56 (FLNQIYTQL; listed as Homo sapiens) [compound 56]”: in the assay with HLA-A*02:01, the Peptide exchange result is ““++++” (>75% = ++++)”. Further, in the assay on CD8+ T cells (HLA A*02), the “Wells positive [%]” value is recorded as ““+++” (50%-69% = +++)”. With “250 (KMILKMVQL; listed as Homo sapiens) [compound 250]”, in the assay with HLA-A*02:01, the Peptide exchange entry is ““+” (>10% = +)”. Also, the “Wells positive [%]” value in the assay with CD8+ T cells (HLA A*02) was ““++” (20%-49% = ++)”.

As for “129 (VFLNQIYTQL; listed as Homo sapiens) [compound 129]”, the Peptide exchange result in the assay with HLA-A*24:02 is listed as ““++” (>20% = ++)”. Consider “55 (RLWQIQHHL; listed as Homo sapiens) [compound 55]”, for which the Peptide exchange entry in the assay with HLA-A*02:01 is recorded as ““+++” (>50 = +++)”. With “130 (VYGDGHYLTF; listed as Homo sapiens) [compound 130]”, the Peptide exchange entry with HLA-A*24:02 was ““+++” (>50 = +++)”. In the case of “41 (SLQDTKITL; listed as Homo sapiens) [compound 41]”, in the assay with HLA-A*02:01, the Peptide exchange result is ““+++” (>50 = +++)”.

“54 (YLPPTDPRMSV; listed as Homo sapiens) [compound 54]”: the Peptide exchange result with HLA-A*02:01 is ““++++” (>75% = ++++)”. With “42 (KMMALVAEL; listed as Homo sapiens) [compound 42]”, the Peptide exchange result with HLA-A*02:01 is given as ““++++” (>75% = ++++)”. The “Wells positive [%]” value in the assay on CD8+ T cells (HLA A*02) is ““++++” (>= 70% = ++++)”. For “128 (SYTKVEARL; listed as Homo sapiens) [compound 128]”, in the assay with HLA-A*24:02, the Peptide exchange entry is given as ““+++” (>50 = +++)”.
